Among the data in publication PMC12615798 are EC50 values, retold here.

The target in the assay is cystatin C^EX (human) (UniProt P01034). Description: ELISA; two-fold serial dilutions of cystatin C^EX coated on the plate overnight at 4 °C, 10 μg/mL ECD-Fc added for 2 h at room temperature, anti-human-IgG-Fc-HRP.
Chain of UniProt P01034 (P01034 27-146): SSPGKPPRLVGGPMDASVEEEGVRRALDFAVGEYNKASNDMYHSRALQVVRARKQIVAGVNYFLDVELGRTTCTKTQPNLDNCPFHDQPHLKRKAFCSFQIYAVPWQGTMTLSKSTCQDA

Turning to “LILRB2 ECD-Fc (commercial) (from UniProt Q8N423 22-460) (Fc fusion)”, the EC50 was 22.8 nM.

Take “LILRB5 ECD-Fc (commercial) (from UniProt O75023 24-458) (Fc fusion)”: the EC50 came to 1180 nM.
